Measurements as given in patent publication US5198419A, “Formulated medicines for enhancing the efficacy of beta-lactam antibiotics in prophylaxis and treatment against infectious disease due to pathogenic bacteria” (Immuno Japan Inc., priority 1989, dated 1993).

Legend:
Pseu. aeruginosa No. 11 = experiment: MIC of apolactoferrin on agar-plate medium; type: cell-based, Pseudomonas aeruginosa
Source text: (§1) The minimum inhibitory concentration of apolactoferrin against
(§2) bacteria on the agar-plate medium.

[1] = test system: Pseu. aeruginosa IFO 3445; experiment: MIC of apolactoferrin on agar-plate medium; type: cell-based, Pseudomonas aeruginosa
Source text: as §1, §2

Pseu. aeruginosa No. 47 = experiment: MIC of apolactoferrin on agar-plate medium; type: cell-based, Pseudomonas aeruginosa
Source text: as §1, §2

Pseu. aeruginosa TMS 11 = experiment: MIC of apolactoferrin on agar-plate medium; type: cell-based, Pseudomonas aeruginosa
Source text: as §1, §2

[2] = test system: St. epidermidis ATCC 13288; experiment: MIC of apolactoferrin on agar-plate medium; type: cell-based, Streptococcus epidermidis
Source text: (§3) Therefore, even though the lactoferrins have very weak antibacterial activity in vitro, it is questionable that they exert direct antibacterial activity against bacteria infecting mammals.
as §1, §2

most pathogenic bacteria = experiment: Antibacterial activity of apolactoferrin in vitro, most bacteria; type: cell-based; details: most of the bacteria
Source text: as §3, §1, §2

Kleb. pneumoniae 3K25 = experiment: MIC of apolactoferrin on agar-plate medium; type: cell-based, Klebsiella pneumoniae
Source text: as §1, §2

[3] = test system: Kleb. pneumoniae IFO 3512; experiment: MIC of apolactoferrin on agar-plate medium; type: cell-based, Klebsiella pneumoniae
Source text: as §1, §2

[4] = test system: Kleb. pneumoniae ATCC 10031; experiment: MIC of apolactoferrin on agar-plate medium; type: cell-based, Klebsiella pneumoniae
Source text: as §1, §2

[5] = test system: Ser. marcescens IFO 12648; experiment: MIC of apolactoferrin on agar-plate medium; type: cell-based, Serratia marcescens
Source text: as §1, §2

bacteria = details: iron-free lactoferrin; previous studies; cited from earlier work
[6] = test system: Proteus vulgaris IFO 3851; experiment: MIC of apolactoferrin on agar-plate medium; type: cell-based
Source text: as §1, §2

[7] = test system: Staphylococcus aureus Smith; experiment: MIC of apolactoferrin on agar-plate medium; type: cell-based
Source text: as §1, §2

Serratia marcescens No 2 = experiment: MIC of apolactoferrin on agar-plate medium; type: cell-based
Source text: as §1, §2

Pr. rettgeri IFO 13501 = experiment: MIC of apolactoferrin on agar-plate medium; type: cell-based
Source text: as §1, §2

Salmonella paratyphi A = experiment: MIC of apolactoferrin on agar-plate medium; type: cell-based
Source text: as §1, §2

Proteus mirabilis 1287 = experiment: MIC of apolactoferrin on agar-plate medium; type: cell-based
Source text: as §1, §2

Shigella sonnei = experiment: MIC of apolactoferrin on agar-plate medium; type: cell-based
Source text: as §1, §2

Proteus mirabilis GN79 = experiment: MIC of apolactoferrin on agar-plate medium; type: cell-based
Source text: as §1, §2

[8] = test system: Escherichia coli NIHJ JC-2; experiment: MIC of apolactoferrin on agar-plate medium; type: cell-based
Source text: as §1, §2

Pr. rettgeri GN624 = experiment: MIC of apolactoferrin on agar-plate medium; type: cell-based
Source text: as §1, §2

[9] = test system: Enterobacter feacalis 95-1; experiment: MIC of apolactoferrin on agar-plate medium; type: cell-based
Source text: as §1, §2

Pr. inconstans GN 627 = experiment: MIC of apolactoferrin on agar-plate medium; type: cell-based
Source text: as §1, §2

[10] = test system: Staphylococcus aureus 227; experiment: MIC of apolactoferrin on agar-plate medium; type: cell-based
Source text: as §1, §2

[11] = test system: Enterobacter cloacae No 91; experiment: MIC of apolactoferrin on agar-plate medium; type: cell-based
Source text: as §1, §2

[12] = test system: Bacillus subtilis ATCC 6633; experiment: MIC of apolactoferrin on agar-plate medium; type: cell-based
Source text: as §1, §2

Citrobacter freundii 2 = experiment: MIC of apolactoferrin on agar-plate medium; type: cell-based
Source text: as §1, §2

Klebsiella oxytoca 1006 = experiment: MIC of apolactoferrin on agar-plate medium; type: cell-based
Source text: as §1, §2

Shigella flexineri = experiment: MIC of apolactoferrin on agar-plate medium; type: cell-based
Source text: as §1, §2

[13] = test system: Citrobacter freundii GN 346; experiment: MIC of apolactoferrin on agar-plate medium; type: cell-based
Source text: as §1, §2

Salmonella typhi = experiment: MIC of apolactoferrin on agar-plate medium; type: cell-based
Source text: as §1, §2

Proteus vulgaris GN76 = experiment: MIC of apolactoferrin on agar-plate medium; type: cell-based
Source text: as §1, §2

[14] = test system: Micrococcus lutens ATCC 9341; experiment: MIC of apolactoferrin on agar-plate medium; type: cell-based
Source text: as §1, §2

Pr. morganii IFO 3848 = experiment: MIC of apolactoferrin on agar-plate medium; type: cell-based
Source text: as §1, §2

Escherichia coli C11 = experiment: MIC of apolactoferrin on agar-plate medium; type: cell-based
Source text: as §1, §2

Pr. morganii GN125 = experiment: MIC of apolactoferrin on agar-plate medium; type: cell-based
Source text: as §1, §2

[15] = test system: Klebsiella pneumoniae GN69; experiment: MIC of apolactoferrin on agar-plate medium; type: cell-based
Source text: as §1, §2

[16] = test system: Pseudomonas aeruginosa E 7; experiment: MIC of apolactoferrin on agar-plate medium; type: cell-based
Source text: as §1, §2

Enterobacter feacalis 64 = experiment: MIC of apolactoferrin on agar-plate medium; type: cell-based
Source text: as §1, §2

Pr. inconstans IFO 12930 = experiment: MIC of apolactoferrin on agar-plate medium; type: cell-based
Source text: as §1, §2

[17] = test system: Serratia marcescens No 78; experiment: MIC of apolactoferrin on agar-plate medium; type: cell-based
Source text: as §1, §2

Escherichia coli No 35 = experiment: MIC of apolactoferrin on agar-plate medium; type: cell-based
Source text: as §1, §2

Vibrio cholerae 569B = experiment: MIC of apolactoferrin on agar-plate medium; type: cell-based
Source text: as §1, §2

[18] = test system: Staphylococcus aureus 209p; experiment: MIC of apolactoferrin on agar-plate medium; type: cell-based
Source text: as §1, §2

Salmonella paratyphi B = experiment: MIC of apolactoferrin on agar-plate medium; type: cell-based
Source text: as §1, §2

B1: apolactoferrin: iron-free lactoferrin, from bovine milk (protein, UniProt P24627 20-708, looked up)
Lactotransferrin: APRKNVRWCTISQPEWFKCRRWQWRMKKLGAPSITCVRRAFALECIRAIAEKKADAVTLDGGMVFEAGRDPYKLRPVAAEIYGTKESPQTHYYAVAVVKKGSNFQLDQLQGRKSCHTGLGRSAGWIIPMGILRPYLSWTESLEPLQGAVAKFFSASCVPCIDRQAYPNLCQLCKGEGENQCACSSREPYFGYSGAFKCLQDGAGDVAFVKETTVFENLPEKADRDQYELLCLNNSRAPVDAFKECHLAQVPSHAVVARSVDGKEDLIWKLLSKAQEKFGKNKSRSFQLFGSPPGQRDLLFKDSALGFLRIPSKVDSALYLGSRYLTTLKNLRETAEEVKARYTRVVWCAVGPEEQKKCQQWSQQSGQNVTCATASTTDDCIVLVLKGEADALNLDGGYIYTAGKCGLVPVLAENRKSSKHSSLDCVLRPTEGYLAVAVVKKANEGLTWNSLKDKKSCHTAVDRTAGWNIPMGLIVNQTGSCAFDEFFSQSCAPGADPKSRLCALCAGDDQGLDKCVPNSKEKYYGYTGAFRCLAEDVGDVAFVKNDTVWENTNGESTADWAKNLNREDFRLLCLDGTRKPVTEAQSCHLAVAPNHAVVSRSDRAAHVKQVLLHQQALFGKNGKNCPDKFCLFKSETKNLLFNDNTECLAKLGGRPTYEEYLGTEYVTAIANLKKCSTSPLLEACAFLTR
modifications: iron-free
notes: iron-free lactoferrin, from bovine milk
Pseu. aeruginosa No. 11
  Minimum Inhibitory Conc.: > 6,400 μg/ml
[1]
  Minimum Inhibitory Conc.: > 6,400 μg/ml
Pseu. aeruginosa No. 47
  Minimum Inhibitory Conc.: > 6,400 μg/ml
Pseu. aeruginosa TMS 11
  Minimum Inhibitory Conc.: > 6,400 μg/ml
[2]
  Minimum Inhibitory Conc.: 800 µg/mL
Most pathogenic bacteria
  minimum inhibitory concentrations: more than 6,400 μg/ml
Kleb. pneumoniae 3K25
  Minimum Inhibitory Conc.: > 6,400 μg/ml
[3]
  Minimum Inhibitory Conc.: > 6,400 μg/ml
[4]
  Minimum Inhibitory Conc.: > 6,400 μg/ml
[5]
  Minimum Inhibitory Conc.: > 6,400 μg/ml
bacteria
  antibacterial activity by degree of iron saturation: the most potent
[6]
  Minimum Inhibitory Conc.: > 6,400 μg/ml
[7]
  Minimum Inhibitory Conc.: > 6,400 μg/ml
Serratia marcescens No 2
  Minimum Inhibitory Conc.: > 6,400 μg/ml
Pr. rettgeri IFO 13501
  Minimum Inhibitory Conc.: 3,200 μg/ml
Salmonella paratyphi A
  Minimum Inhibitory Conc.: > 6,400 μg/ml
Proteus mirabilis 1287
  Minimum Inhibitory Conc.: 3,200 μg/ml
Shigella sonnei
  Minimum Inhibitory Conc.: > 6,400 μg/ml
Proteus mirabilis GN79
  Minimum Inhibitory Conc.: > 6,400 μg/ml
[8]
  Minimum Inhibitory Conc.: 3,200 μg/ml
Pr. rettgeri GN624
  Minimum Inhibitory Conc.: 6,400 μg/ml
[9]
  Minimum Inhibitory Conc.: 3,200 μg/ml
Pr. inconstans GN 627
  Minimum Inhibitory Conc.: > 6,400 μg/ml
[10]
  Minimum Inhibitory Conc.: > 6,400 μg/ml
[11]
  Minimum Inhibitory Conc.: > 6,400 μg/ml
[12]
  Minimum Inhibitory Conc.: 3,200 μg/ml
Citrobacter freundii 2
  Minimum Inhibitory Conc.: > 6,400 μg/ml
Klebsiella oxytoca 1006
  Minimum Inhibitory Conc.: > 6,400 μg/ml
Shigella flexineri
  Minimum Inhibitory Conc.: > 6,400 μg/ml
[13]
  Minimum Inhibitory Conc.: > 6,400 μg/ml
Salmonella typhi
  Minimum Inhibitory Conc.: > 6,400 μg/ml
Proteus vulgaris GN76
  Minimum Inhibitory Conc.: > 6,400 μg/ml
[14]
  Minimum Inhibitory Conc.: > 6,400 μg/ml
Pr. morganii IFO 3848
  Minimum Inhibitory Conc.: > 6,400 μg/ml
Escherichia coli C11
  Minimum Inhibitory Conc.: > 6,400 μg/ml
Pr. morganii GN125
  Minimum Inhibitory Conc.: 3,200 μg/ml
[15]
  Minimum Inhibitory Conc.: > 6,400 μg/ml
[16]
  Minimum Inhibitory Conc.: > 6,400 μg/ml
Enterobacter feacalis 64
  Minimum Inhibitory Conc.: 3,200 μg/ml
Pr. inconstans IFO 12930
  Minimum Inhibitory Conc.: > 6,400 μg/ml
[17]
  Minimum Inhibitory Conc.: > 6,400 μg/ml
Escherichia coli No 35
  Minimum Inhibitory Conc.: 1,600 μg/ml
Vibrio cholerae 569B
  Minimum Inhibitory Conc.: 3,200 μg/ml
[18]
  Minimum Inhibitory Conc.: > 6,400 μg/ml
Salmonella paratyphi B
  Minimum Inhibitory Conc.: > 6,400 μg/ml
